T1: human CD20 (human, UniProt P11836 1-297)
T1 construct: whole, on cells; also called CD20 antigen; Bp35
T1 sequence (looked up): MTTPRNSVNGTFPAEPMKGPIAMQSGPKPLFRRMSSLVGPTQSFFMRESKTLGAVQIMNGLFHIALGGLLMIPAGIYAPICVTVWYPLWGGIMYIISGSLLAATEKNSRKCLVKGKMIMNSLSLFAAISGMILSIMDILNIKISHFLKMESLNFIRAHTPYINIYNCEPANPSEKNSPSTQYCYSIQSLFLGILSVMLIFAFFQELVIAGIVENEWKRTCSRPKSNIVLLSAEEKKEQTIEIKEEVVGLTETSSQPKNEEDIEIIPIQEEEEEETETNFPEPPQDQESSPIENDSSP


What was measured:
human CD20 [1] = target: T1, human CD20; assay: Scatchard analysis, cold antibody against 125I-2H7.v16 on WIL2-S cells, n=4
Procedure: All dilutions were performed in binding assay buffer (DMEM media containing 1% bovine serum albumin, 25 mM HEPES pH 7.2, and 0.01% sodium azide). […] WIL2-S cells (60,000 cells in 0.025 mL) were then added. The plate was sealed and incubated at room temperature for 24 hours, then centrifuged for 15 min at 3,500 RPM. The supernatant was then aspirated and the cell pellet was washed and centrifuged. The supernatant was again aspirated, and the pellets were dissolved in 1N NaOH and transferred to tubes for gamma counting.

human CD20 [2] = target: T1, human CD20; assay: cell-based ELISA on WIL2-S cells; conc. 2H7.v16 / conc. variant
Procedure: To measure relative binding affinities to the CD20 antigen, a cell-based ELISA assay was developed. […] The cells were washed with PBS containing 1% fetal bovine serum (FBS) (assay buffer) and seeded at 250-300,000 cell/well in 96-well round bottom plates (Nunc, Roskilde, Denmark). […] The plates were buried in ice and incubated for 45 min. To remove the unbound antibody, 0.1 mL assay buffer was added to the wells. Plates were centrifuged and supernatants were removed. Cells were washed two more times with 0.2 mL assay buffer. Antibody bound to the plates was detected by adding peroxidase-conjugated goat anti-human Fc antibody (Jackson ImmunoResearch, West Grove, Pa.) to the plates. After a 45-min incubation, cells were washed as described before. TMB substrate (3,3′,5,5′-tetramethyl benzidine; Kirkegaard & Perry Laboratories, Gaithersburg, Md.) was added to the plates. The reaction was stopped by adding 1 M phosphoric acid. Titration curves were fit with a four-parameter nonlinear regression curve-fitting program ([…] ™, Synergy software, Reading, Pa.). The absorbance at the midpoint of the titration curve (mid-OD) and its corresponding concentration of the standard were determined. Then the concentration of each variant at this mid-OD was determined, and the concentration of the standard was divided by that of each variant.

| Kd (human CD20 [1]) | Relative binding (human CD20 [2]) | Binder |
| --- | --- | --- |
| 1.22 nM | – | 2H7.v73 (antibody, IgG1, IgG1; changes relative to 2H7.v16; also called 2H7 version 73) heavy: not shown light: DIQMTQSPSSLSASVGDRVTITCRASSSVSYLHWYQQKPGKAPKPLIYAPSNLASGVPSRFSGSGSGTDFTLTISSLQPEDFATYYCQQWSFNPPTFGQGTKVEIKRTVAAPSVFIFPPSDEQLKSGTASVVCLLNNFYPREAKVQWKVDNALQSGNSQESVTEQDSKDSTYSLSSTLTLSKADYEKHKVYACEVTHQGLSSPVTKSFNRGEC |
| 1.09 nM | – | 2H7.v75 (antibody, IgG1, IgG1; changes relative to 2H7.v16; also called 2H7 version 75) heavy: EVQLVESGGGLVQPGGSLRLSCAASGYTFTSYNMHWVRQAPGKGLEWVGAIYPGNGDTSYNQKFKGRFTISVDKSKNTLYLQMNSLRAEDTAVYYCARVVYYSASYWYFDVWGQGTLVTVSSASTKGPSVFPLAPSSKSTSGGTAALGCLVKDYFPEPVTVSWNSGALTSGVHTFPAVLQSSGLYSLSSVVTVPSSSLGTQTYICNVNHKPSNTKVDKKVEPKSCDKTHTCPPCPAPELLGGPSVFLFPPKPKDTLMISRTPEVTCVVVDVSHEDPEVKFNWYVDGVEVHNAKTKPREEQYNATYRVVSVLTVLHQDWLNGKEYKCKVSNKALPAPIAATISKAKGQPREPQVYTLPPSREEMTKNQVSLTCLVKGFYPSDIAVEWESNGQPENNYKTTPPVLDSDGSFFLYSKLTVDKSRWQQGNVFSCSVMHEALHNHYTQKSLSLSPGK light: DIQMTQSPSSLSASVGDRVTITCRASSSVSYLHWYQQKPGKAPKPLIYAPSNLASGVPSRFSGSGSGTDFTLTISSLQPEDFATYYCQQWSFNPPTFGQGTKVEIKRTVAAPSVFIFPPSDEQLKSGTASVVCLLNNFYPREAKVQWKVDNALQSGNSQESVTEQDSKDSTYSLSSTLTLSKADYEKHKVYACEVTHQGLSSPVTKSFNRGEC |
| – | 0.99 ratio | 2H7.v166 (antibody, human IgG1, kappa, V domains shown, IgG1; changes relative to 2H7.v16; Y100b is deleted (written as a change to nothing); also called 2H7 version 166) VH: EVQLVESGGGLVQPGGSLRLSCAASGYTFTSYNMHWVRQAPGKGLEWVGAIYPGNGDTSYNQKFKGRFTISVDKSKNTLYLQMNSLRAEDTAVYYCARVVYYGGDWYFDVWGQGTLVTVSS VL: DIQMTQSPSSLSASVGDRVTITCRASSSVSYMHWYQQKPGKAPKPLIYAPSNLASGVPSRFSGSGSGTDFTLTISSLQPEDFATYYCQQWSFNPPTFGQGTKVEIKR |
